The source of these data is patent US20240383984A1 (Genentech, published 2024).

Test in all cases: FACS, SVT2 cells
For test [1], the target named is T1, human FcRH3 (full-length, on SVT2 cells) (human, UniProt Q96P31 18-734).
T1 construct: whole, on cells; also called SVT2-FcRH3
T1 sequence (looked up): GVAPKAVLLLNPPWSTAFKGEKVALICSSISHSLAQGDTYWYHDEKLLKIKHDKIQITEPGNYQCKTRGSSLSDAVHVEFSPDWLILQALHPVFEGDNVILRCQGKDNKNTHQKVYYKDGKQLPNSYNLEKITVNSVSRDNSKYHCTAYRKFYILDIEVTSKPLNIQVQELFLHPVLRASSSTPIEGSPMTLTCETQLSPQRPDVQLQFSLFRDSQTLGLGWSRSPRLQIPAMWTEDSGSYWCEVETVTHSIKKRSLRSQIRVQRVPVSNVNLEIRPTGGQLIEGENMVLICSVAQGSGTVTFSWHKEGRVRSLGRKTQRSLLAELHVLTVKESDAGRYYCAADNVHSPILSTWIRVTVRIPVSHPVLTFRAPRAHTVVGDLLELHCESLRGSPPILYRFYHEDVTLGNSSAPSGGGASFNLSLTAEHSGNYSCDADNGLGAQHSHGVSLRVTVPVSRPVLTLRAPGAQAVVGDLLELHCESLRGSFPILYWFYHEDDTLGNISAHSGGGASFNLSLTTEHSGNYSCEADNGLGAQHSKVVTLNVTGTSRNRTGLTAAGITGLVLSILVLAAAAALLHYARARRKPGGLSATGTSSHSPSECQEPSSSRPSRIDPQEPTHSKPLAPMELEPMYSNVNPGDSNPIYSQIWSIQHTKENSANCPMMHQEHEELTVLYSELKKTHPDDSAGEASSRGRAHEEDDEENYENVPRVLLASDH

Test [2] concerns the target T2, Human E11-TM-ICD (E11 domain, transmembrane domain, and cytoplasmic domains of human FcRH5, on SVT2 cells) (human, UniProt Q96RD9 745-977).
T2 construct: On cells
T2 sequence: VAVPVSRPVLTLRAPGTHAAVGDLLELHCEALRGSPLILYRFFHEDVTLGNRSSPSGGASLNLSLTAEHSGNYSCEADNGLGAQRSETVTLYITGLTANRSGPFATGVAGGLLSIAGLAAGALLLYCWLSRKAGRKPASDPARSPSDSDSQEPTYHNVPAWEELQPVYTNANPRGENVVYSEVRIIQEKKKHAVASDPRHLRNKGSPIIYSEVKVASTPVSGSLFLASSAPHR

Test [3] has as its target T3, human FcRH2 (full-length, on SVT2 cells) (human, UniProt Q96LA5 20-508).
T3 construct: whole, on cells; also called SVT2-FcRH2
T3 sequence (looked up): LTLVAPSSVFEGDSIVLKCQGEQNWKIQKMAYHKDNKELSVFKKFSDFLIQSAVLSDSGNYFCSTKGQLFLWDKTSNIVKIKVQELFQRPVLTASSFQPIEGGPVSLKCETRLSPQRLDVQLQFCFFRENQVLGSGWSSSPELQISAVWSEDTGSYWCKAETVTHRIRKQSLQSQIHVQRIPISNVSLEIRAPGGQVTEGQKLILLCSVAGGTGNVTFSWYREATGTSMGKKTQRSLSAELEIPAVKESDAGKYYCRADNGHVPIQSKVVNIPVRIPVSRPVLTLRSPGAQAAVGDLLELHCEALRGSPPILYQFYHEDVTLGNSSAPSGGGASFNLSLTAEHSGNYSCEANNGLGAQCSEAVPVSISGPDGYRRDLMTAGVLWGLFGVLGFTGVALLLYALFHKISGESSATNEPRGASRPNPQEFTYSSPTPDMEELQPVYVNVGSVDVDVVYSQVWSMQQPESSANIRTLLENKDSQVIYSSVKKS

Test [4] addresses T4, human FcRH4 (full-length, on SVT2 cells) (human, UniProt Q96PJ5 20-515).
T4 construct: whole, on cells; also called SVT2-FcRH4
T4 sequence (looked up): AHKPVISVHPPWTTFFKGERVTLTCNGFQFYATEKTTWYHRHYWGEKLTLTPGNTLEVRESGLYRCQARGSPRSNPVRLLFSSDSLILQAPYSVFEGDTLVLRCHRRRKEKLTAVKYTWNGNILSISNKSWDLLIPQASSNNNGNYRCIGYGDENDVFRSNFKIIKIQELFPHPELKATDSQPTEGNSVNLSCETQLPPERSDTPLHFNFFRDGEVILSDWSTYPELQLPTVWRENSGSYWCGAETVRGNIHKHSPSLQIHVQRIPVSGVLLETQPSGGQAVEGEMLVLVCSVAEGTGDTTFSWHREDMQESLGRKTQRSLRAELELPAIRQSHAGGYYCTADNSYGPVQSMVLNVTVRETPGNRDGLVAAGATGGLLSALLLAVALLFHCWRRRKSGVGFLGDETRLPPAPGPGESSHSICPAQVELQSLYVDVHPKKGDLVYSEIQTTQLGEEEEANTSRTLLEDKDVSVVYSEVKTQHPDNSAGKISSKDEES

B1: 15G8 (antibody, mouse IgG2a, V domains shown)
VH: EVQLQQSGPELVKPGASVKMSCKASGYTFTNYVIHWMKQKPGQGLEWIGYISPYNDYTKYNEKFEGKATLTSDKSSNTAYMELSSLTSEDSAVYYCARRDYYGSSDYWGQGTTLTVSS
VL: QIVLTQSPAIMSASPGEKVTMTCSASSSVDYMHWYQQKSGTSPKKWIYDTSKLASGVPARFSGSGSGTSYSLTIGSMEAEDAATYYCQQWSSNPPTFGGGTKLEIK
notes: mouse mAb, Campaign C; recombinant murine IgG2a for SPR; also called mAb 15G8
On to B1, for which the binding result in test [1] is “no binding”; in test [2] it was “binds”; in test [3], “no binding”; in test [4], “no binding”.

B2: 17B1 (antibody, mouse IgG2a, V domains shown)
VH: QVQLQQSGPELVRPGVSVKISCKGSGYTFTHYAMHWVKQSHTKSLEWIGMISSSSGNTNFNQKFMDKATMTVDKSSTTAYLELARLTFGDSAIYYCARWSYYALFDYWGQGTTVTVSS
VL: ENVLTQSPAIMSASPGEKVTMTCSADSSVDYIHWYQQKSNTSPKLWIYDTSKLASGVPGRFSGSGSGNSYSLTISSMEAEDFATYYCFQGSGYPLTFGSGTKLELK
notes: mouse mAb, Campaign C; recombinant murine IgG2a for SPR
Regarding B2, the binding result in test [1] is “no binding”; in test [2] it was “binds”; in test [3], “no binding”; in test [4] it was “no binding”.
